Results: publication PMC6914384 (Nature, 2018)
No end group written: not given here.

Target: T1, p300 BRP (Homo sapiens, UniProt Q09472)
T1 sequence (Q09472 1048-1282): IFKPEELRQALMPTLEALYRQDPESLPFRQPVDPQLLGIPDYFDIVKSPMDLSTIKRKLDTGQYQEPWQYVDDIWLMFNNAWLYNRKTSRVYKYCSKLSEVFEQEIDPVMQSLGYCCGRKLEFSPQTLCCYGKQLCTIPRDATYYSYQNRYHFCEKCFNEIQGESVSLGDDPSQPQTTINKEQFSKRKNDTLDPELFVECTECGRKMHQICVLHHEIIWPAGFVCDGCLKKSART
Test: ITC of histone and AIL peptides with p300 BRP
Assay type: binding
Conditions: p300 BRP module; for Binding by ITC, result in words (printed in column N): Kd cell prints --

Row | Substance | Binding by ITC, result in words (printed in column N) | Kd (μM) (mean and s.d. of experiments in triplicate)
1 | H3T11pho (1-20): histone H3 peptide 1-20, T11 phosphorylated | No binding | 
2 | H4 K16ac (4-24): histone H4 peptide 4-24, K16ac | No binding | 
3 | H3 K4me3 (1-20): histone H3 peptide 1-20, K4me3 | No binding | 
4 | AIL K1549K1558K1560tri-ac (1545-1562): p300 autoinhibitory loop peptide 1545-1562 acetylated on K1549, K1558, K1560 (SKNAK(Ac)KKNNKKTSK(Ac)NK(Ac)SS) | No binding | 
5 | ARTKQTQRKSTGGKAPRKQL [H3 unmodified (1-20)] | No binding | 
6 | H4 K5ac (4-24): histone H4 peptide 4-24, K5ac | No binding | 
7 | H3 S10pho (1-20): histone H3 peptide 1-20, S10 phosphorylated | No binding | 
8 | H3 K9ac (1-20): histone H3 peptide 1-20, K9ac | No binding | 
9 | H3 K18ac (1-20): histone H3 peptide 1-20, K18ac |  | large
10 | SKNAKKKNNKKTSKNKSS [AIL (1545-1562)] | No binding | 
11 | H3 K4me1 (1-20): histone H3 peptide 1-20, K4me1 | No binding | 
